Measured values taken from US20200317769A1.

Target: soluble cynomolgus monkey TNF-alpha (cynomolgus monkey) (UniProt P79337)
Assay: cell-based or functional assay

Chain of soluble cynomolgus monkey TNF-alpha (cynomolgus monkey) (P79337 77-233 limits assumed): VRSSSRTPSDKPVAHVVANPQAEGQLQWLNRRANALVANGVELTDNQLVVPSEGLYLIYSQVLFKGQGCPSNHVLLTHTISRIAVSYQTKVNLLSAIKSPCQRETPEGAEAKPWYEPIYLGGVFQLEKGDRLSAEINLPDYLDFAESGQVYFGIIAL

Substance: adalimumab (antibody)
- Inhibition of cynomolgus TNF-induced L929 cell cytotoxicity EC50: 0.04 nM
